Assay results published in patent US20070293656A1, “COLLAGEN BINDING PEPTIDES” (Epix Pharmaceuticals, Inc., priority 2005, published 2007).
Bridge positions count the residues as written; N and C are the ends. Ends that are not written are not given here.

Biological target: T1, human collagen type I (acid soluble, extracted from placenta, Sigma C7774) (human, UniProt P02452 162-1218; P08123 80-1119)
T1 construct: gelled and dried as a fibril film in the assay; also called dried human collagen; h-Collagen
Assay: dried collagen assay
Method: An additional 90 μL is reserved in a HPLC glass vial as a measure of the total concentration.

T1 sequence (P02452 162-1218 limits assumed, chain 1 of 2): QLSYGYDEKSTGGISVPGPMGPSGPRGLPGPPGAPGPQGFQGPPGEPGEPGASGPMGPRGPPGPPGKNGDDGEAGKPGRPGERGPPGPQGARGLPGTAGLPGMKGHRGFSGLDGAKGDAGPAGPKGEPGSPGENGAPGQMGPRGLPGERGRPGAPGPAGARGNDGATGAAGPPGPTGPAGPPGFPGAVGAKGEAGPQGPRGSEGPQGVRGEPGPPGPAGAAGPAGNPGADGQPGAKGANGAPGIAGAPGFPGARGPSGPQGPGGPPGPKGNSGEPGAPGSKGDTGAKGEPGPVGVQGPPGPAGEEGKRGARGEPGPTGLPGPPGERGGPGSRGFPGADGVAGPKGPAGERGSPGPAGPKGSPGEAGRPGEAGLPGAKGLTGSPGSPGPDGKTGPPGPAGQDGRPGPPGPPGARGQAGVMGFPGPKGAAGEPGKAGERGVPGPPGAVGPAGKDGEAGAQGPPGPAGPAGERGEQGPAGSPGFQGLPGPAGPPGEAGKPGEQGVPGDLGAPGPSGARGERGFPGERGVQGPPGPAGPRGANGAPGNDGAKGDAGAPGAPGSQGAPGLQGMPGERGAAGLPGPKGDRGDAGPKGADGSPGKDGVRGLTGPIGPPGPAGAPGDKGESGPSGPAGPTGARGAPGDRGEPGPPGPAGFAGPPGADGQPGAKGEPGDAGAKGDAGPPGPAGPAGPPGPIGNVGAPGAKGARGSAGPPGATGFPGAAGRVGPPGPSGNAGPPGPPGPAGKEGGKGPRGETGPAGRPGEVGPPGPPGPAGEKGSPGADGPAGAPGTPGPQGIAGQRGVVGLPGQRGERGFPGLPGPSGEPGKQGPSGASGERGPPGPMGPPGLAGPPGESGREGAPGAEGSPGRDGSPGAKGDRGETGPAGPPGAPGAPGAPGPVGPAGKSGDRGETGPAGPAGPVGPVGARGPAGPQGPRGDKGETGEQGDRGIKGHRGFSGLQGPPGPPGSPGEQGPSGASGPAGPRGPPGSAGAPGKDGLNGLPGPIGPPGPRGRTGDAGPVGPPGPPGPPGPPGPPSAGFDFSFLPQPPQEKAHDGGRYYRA
T1 sequence (P08123 80-1119 limits assumed, chain 2 of 2): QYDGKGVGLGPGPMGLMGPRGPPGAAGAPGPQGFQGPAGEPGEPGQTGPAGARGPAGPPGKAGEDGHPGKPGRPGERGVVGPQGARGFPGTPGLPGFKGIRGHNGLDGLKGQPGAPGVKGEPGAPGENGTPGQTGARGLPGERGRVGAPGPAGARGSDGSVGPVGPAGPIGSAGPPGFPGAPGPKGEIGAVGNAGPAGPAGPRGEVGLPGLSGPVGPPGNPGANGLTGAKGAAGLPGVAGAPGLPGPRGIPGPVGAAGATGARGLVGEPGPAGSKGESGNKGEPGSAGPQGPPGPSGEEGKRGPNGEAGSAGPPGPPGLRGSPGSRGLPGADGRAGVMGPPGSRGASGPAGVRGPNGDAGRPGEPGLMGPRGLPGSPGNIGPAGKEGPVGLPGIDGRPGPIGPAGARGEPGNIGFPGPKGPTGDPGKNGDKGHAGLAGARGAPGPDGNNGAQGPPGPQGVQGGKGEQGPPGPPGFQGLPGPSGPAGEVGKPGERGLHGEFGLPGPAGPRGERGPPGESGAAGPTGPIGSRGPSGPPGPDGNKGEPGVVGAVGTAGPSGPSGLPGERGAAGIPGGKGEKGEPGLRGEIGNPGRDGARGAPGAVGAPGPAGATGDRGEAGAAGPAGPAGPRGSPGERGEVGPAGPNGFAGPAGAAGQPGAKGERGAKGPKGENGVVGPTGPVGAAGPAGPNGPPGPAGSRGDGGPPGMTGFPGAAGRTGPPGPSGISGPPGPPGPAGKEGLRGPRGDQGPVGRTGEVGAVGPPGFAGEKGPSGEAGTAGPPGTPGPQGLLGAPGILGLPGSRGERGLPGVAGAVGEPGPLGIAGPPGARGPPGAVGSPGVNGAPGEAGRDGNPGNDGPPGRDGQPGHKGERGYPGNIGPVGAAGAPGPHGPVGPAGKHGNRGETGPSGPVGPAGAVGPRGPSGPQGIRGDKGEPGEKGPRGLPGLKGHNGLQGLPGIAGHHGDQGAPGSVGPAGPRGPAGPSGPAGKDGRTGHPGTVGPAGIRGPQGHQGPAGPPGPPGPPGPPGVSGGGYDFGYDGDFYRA

| Binder | % bound |
| --- | --- |
| TWACGWTTTGWDNCRWI (disulfide 4-14 (inferred)) [SEQ ID NO: 92] | 34% |
| TWACGWTTTGWDNCRWI (disulfide 4-14 (inferred)) [SEQ ID NO: 90] | 34% |
| WWACQKGQHDWEKCHWL (disulfide 4-14 (inferred)) [SEQ ID NO: 93] | 5% |
| WTDCQWMDEQLWTCRWD (disulfide 4-14 (inferred)) [SEQ ID NO: 94] | 21% |
| YWVCGGDHQSWHCSHP (disulfide 4-13 (inferred)) [SEQ ID NO: 35] | 8% |
| PWQCYSDKTSWVCNLY (disulfide 4-13 (inferred)) [SEQ ID NO: 43] | 30% |
| AKKCWYNDGGHLRCRTL (disulfide 4-14 (inferred)) [SEQ ID NO: 99] | 3% |
| KWFCELMQDQWQCGSK (disulfide 4-13 (inferred)) [SEQ ID NO: 50] | 18% |
| KWFCELMHDQWQCGSK (disulfide 4-13 (inferred)) [SEQ ID NO: 51] | 18% |
| TWRCDQFKGKWVCRGG (disulfide 4-13 (inferred)) [SEQ ID NO: 42] | 40% |
| YPACDDQTHLWNLACWPA (disulfide 4-15 (inferred)) [SEQ ID NO: 103] | 2% |
| AWTCVGGEKTWGCVWN (disulfide 4-13 (inferred)) [SEQ ID NO: 33] | 12% |
| KWHCELDSHMEWSCSGH (disulfide 4-14 (inferred)) [SEQ ID NO: 89] | 1% |
| DWTCSGDEYTWHCNYE (disulfide 4-13 (inferred)) [SEQ ID NO: 17] | 78% |
| DWTCYGDEYTWHCNYE (disulfide 4-13 (inferred)) [SEQ ID NO: 15] | 83% |
| DWTCRGDEYTWHCNYE (disulfide 4-13 (inferred)) [SEQ ID NO: 14] | 83% |
| DWTCSGDEYRWHCNYE (disulfide 4-13 (inferred)) [SEQ ID NO: 19] | 70% |

| Binder | % bound |
| --- | --- |
| DWTCSGDEYTWYCNYE (disulfide 4-13 (inferred)) [SEQ ID NO: 18] | 78% |
| TWMCVDPPLWRCWVQ (disulfide 4-12 (inferred)) [SEQ ID NO: 4] | 45% |
| WISCESSEEKISYCWRA (disulfide 4-14 (inferred)) [SEQ ID NO: 97] | 13% |
| WAYCMTDPSGKYRYCQNW (disulfide 4-15 (inferred)) [SEQ ID NO: 102] | 31% |
| AWDCSGNIPTWYCRRL (disulfide 4-13 (inferred)) [SEQ ID NO: 23] | 44% |
| TWQCSGNQKWSCEWF (disulfide 4-12 (inferred)) [SEQ ID NO: 6] | 20% |
| EWLCVGDSLKWYCKHS (disulfide 4-13 (inferred)) [SEQ ID NO: 24] | 43% |
| TWNCYGVTEWHCYMI (disulfide 4-12 (inferred)) [SEQ ID NO: 9] | 7% |
| RWSCWLDENGWKCDGT (disulfide 4-13 (inferred)) [SEQ ID NO: 52] | 15% |
| IWLCTGGAATWNCKFD (disulfide 4-13 (inferred)) [SEQ ID NO: 25] | 39% |
| WWGCRQGTGEHWSHCMWF (disulfide 4-15 (inferred)) [SEQ ID NO: 100] | 67% |
| DWTCVGDHKTWKCNFH (disulfide 4-13 (inferred)) [SEQ ID NO: 21] | 57% |
| PWYCSGDHLDWKCIYQ (disulfide 4-13 (inferred)) [SEQ ID NO: 20] | 64% |
| GWVCGGDHTTWECHLQ (disulfide 4-13 (inferred)) [SEQ ID NO: 31] | 15% |
| SWHCFGDNENWMCNLR (disulfide 4-13 (inferred)) [SEQ ID NO: 27] | 24% |
| AWFCSQKNRLWSCGET (disulfide 4-13 (inferred)) [SEQ ID NO: 49] | 19% |
| DWICHGDFDTWKCDLQ (disulfide 4-13 (inferred)) [SEQ ID NO: 29] | 16% |

The next lines start with the values.

| % bound | Binder |
| --- | --- |
| 17% | WQLCSSRNDHVAYCFVS (disulfide 4-14 (inferred)) [SEQ ID NO: 96] |
| 7% | PMICHAPYVGKCNFL (disulfide 4-12 (inferred)) [SEQ ID NO: 12] |
| 5% | WTDCQWMDEQIWTCRWD (disulfide 4-14 (inferred)) [SEQ ID NO: 95] |
| 22% | AWSCWIVEGRWNCSDI (disulfide 4-13 (inferred)) [SEQ ID NO: 48] |
| 1% | VWACRGGTTNWHCDL (disulfide 4-13 (inferred)) [SEQ ID NO: 41] |
| 11% | MWDCTGNSAEWRCEMQ (disulfide 4-13 (inferred)) [SEQ ID NO: 34] |
| 12% | NWVCSGDHADWSCALI (disulfide 4-13 (inferred)) [SEQ ID NO: 32] |
| 23% | GWVCLQKGPKWVCDWD (disulfide 4-13 (inferred)) [SEQ ID NO: 46] |
| 16% | GWDCQGTDNIWECVRK (disulfide 4-13 (inferred)) [SEQ ID NO: 30] |
| 9% | LTVCHPPYYGRCNFV (disulfide 4-12 (inferred)) [SEQ ID NO: 10] |
| 83% | DWTCSGDEYYWHCNYE (disulfide 4-13 (inferred)) [SEQ ID NO: 16] |
| 11% | NWYCTGTKSWECFWK (disulfide 4-12 (inferred)) [SEQ ID NO: 7] |
| 55% | DWECHGNEFEWNCLMR (disulfide 4-13 (inferred)) [SEQ ID NO: 22] |
| 3% | EWRCRGDSSSWLCDYT (disulfide 4-13 (inferred)) [SEQ ID NO: 40] |
| 56% | WWTCHMTWSGQWDSCKWH (disulfide 4-15 (inferred)) [SEQ ID NO: 101] |
| 28% | GWNCYEYDSQWICDHL (disulfide 4-13 (inferred)) [SEQ ID NO: 44] |
| 25% | WRCDGDAHDWHCDWF (disulfide 3-12 (inferred)) [SEQ ID NO: 26] |
| 1% | FWTCMRDQVGEWHCGTE (disulfide 4-14 (inferred)) [SEQ ID NO: 88] |
| 20% | SWICTGDNIDWNCRFA (disulfide 4-13 (inferred)) [SEQ ID NO: 28] |
| 24% | NWKCWGVVKWECIWA (disulfide 4-12 (inferred)) [SEQ ID NO: 5] |
| 22% | PWTCRMTENTWVCDLN (disulfide 4-13 (inferred)) [SEQ ID NO: 47] |
| 25% | EWQCTQYANQWNCKYN (disulfide 4-13 (inferred)) [SEQ ID NO: 45] |
| 9% | PLVCHPPYSGSCSLH (disulfide 4-12 (inferred)) [SEQ ID NO: 11] |
